From patent US20240374671A1 (ACCELERON PHARMA, published 2024) come the findings set out here.

Assay [1] deals with T1, monomeric hActRIIB (human, UniProt Q13705 25-130, limits assumed).
T1 construct: also called ActRIIB MONOMER; ActRIIB monomer
T1 sequence: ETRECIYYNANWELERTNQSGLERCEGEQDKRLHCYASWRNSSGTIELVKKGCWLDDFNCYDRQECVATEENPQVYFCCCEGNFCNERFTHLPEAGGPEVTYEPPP
Nature of the assay: SPR (Biacore), 37 C. In general terms: SPR reads the build-up and loss of mass on a sensor chip optically.

Assay [2] concerns the target T2, dimeric hActRIIB (human, UniProt Q13705 25-130).
T2 construct: also called ActRIIB DIMER; ActRIIB dimer
T2 sequence: T1 sequence
Nature of the assay: SPR (Biacore), 37 C.

In assay [3] the target is T3, monomeric hActRIIA (human, UniProt P27037 21-138, limits assumed).
T3 construct: also called ActRIIA MONOMER; ActRIIA monomer
Nature of the assay: SPR (BIACORE), 37 C, series of concentrations (not printed on the sheet).

Assay [4] deals with T4, dimeric hActRIIA (human, UniProt P27037 21-138).
T4 construct: also called ActRIIA DIMER; ActRIIA dimer
The description is as above.

Assay [5] has as its target T5, human ActRIIB ECD (peptide library) (human, UniProt Q13705 25-130).
T5 construct: also called AcRIIB
T5 sequence: T1 sequence
Nature of the assay: Pepscan peptide library ELISA (linear 15-mers and CLIPS). The protocol: Mapping of the ActRIIB and ActRIIA ECD epitopes recognized by the antibodies was performed by Pepscan Presto BV using custom made peptide libraries. Sequences of ECDs of human ActRIIB and ActRIIA were converted into libraries of overlapping linear 15-mers and circularized 15-mer CLIPS using combinatorial matrix design. CLIPS (Chemical Linkage of Peptides onto Scaffolds) technology structurally fixes peptides into defined three-dimensional structures (single, double, triple, etc. loops) creating functional mimics of complex binding sites. Peptides were synthesized on solid support. Binding of antibodies to each of the synthesized peptides was tested by ELISA and binding affinities were quantified. Peptide constructs representing both parts of the discontinuous epitope in the correct conformation bind specific antibody with the highest affinity. […] Each peptide was given a score based on affinity.
Background: ELISA stands for enzyme-linked immunosorbent assay.

Assay [6] has as its target T3, monomeric hActRIIA. As to the kind of experiment: SPR (Biacore), 37 C.
Assay [7] deals with T4, dimeric hActRIIA. Nature of the assay: SPR (Biacore), 37 C.
For assay [8], the target named is T1, monomeric hActRIIB. As to the kind of experiment: SPR (Biacore), 37 C. This is another data set of the same source.
The target in assay [9] is T2, dimeric hActRIIB. As to the kind of experiment: SPR (Biacore), 37 C. The source holds these as a separate data set.
For assay [10], the target named is T3, monomeric hActRIIA. As to the kind of experiment: SPR (Biacore), 37 C. The source holds these as a separate data set.
For assay [11], the target named is T4, dimeric hActRIIA. As to the kind of experiment: SPR (Biacore), 37 C. This is another data set of the same source.
Assay [12] addresses T1, monomeric hActRIIB. As to the kind of experiment: SPR (Biacore), 37 C, mAb captured on anti-hFc chip, receptor injected, 1:1 fit. The protocol: (§1) Kinetic characterization of A01 antibody lineage (A01 (naïve parent), B01, C01, D01, E01 and F01) binding to monomeric and dimeric hActRIIB and hActRIIA was performed using standard BIACORE®-based analysis at 37° C. In brief, antibodies were captured on anti-hFcIgG Biacore chips and different concentrations of dimeric and monomeric ActRIIB or ActRIIA were injected in duplicates over the captured antibody and control surface. To obtain kinetic rate constants the data were double referenced and fit to a 1:1 interaction model using BiaEvaluation software (GE Healthcare). The equilibrium binding constant KD was determined by the ratio of binding rate constants kd/kₐ

Assay [13] addresses T2, dimeric hActRIIB. Described as above. As to the method: as §1
The target of assay [14] is T3, monomeric hActRIIA. Nature of the assay: SPR (BIACORE), 37 C, series of concentrations (not printed on the sheet). The protocol:
(§2) FIGS. 1A-1N depict kinetic characterization of A01 lineage antibodies binding to hActRIIB and hActRIIA as determined by BIACORE®-based analysis at 37° C. Monomeric or dimeric hActRIIB or hActRIIA was […]. FIGS. 1A-1D depict characterization of antibody A01 (parent) binding to ActRIIB monomer (FIG. 1A), ActRIIB dimer (FIG. 1B), ActRIIA monomer (FIG. 1C), and ActRIIA dimer (FIG. 1D). FIGS. 1E and 1F depict characterization of antibody B01 binding to ActRIIB monomer (FIG. 1E) and ActRIIB dimer (FIG. 1F). FIGS. 1G-1H depict antibody C01 binding to ActRIIB monomer (FIG. 1G) and ActRIIB dimer (FIG. 1H). FIGS. 1I-1J depict antibody D01 binding to ActRIIB monomer (FIG. 1I) and ActRIIB dimer (FIG. 1J). FIGS. 1K-1L depict antibody E01 binding to ActRIIB monomer (FIG. 1K) and ActRIIB dimer (FIG. 1L). FIGS. 1M-1N depict antibody F01 binding to ActRIIB monomer (FIG. 1M) and ActRIIB dimer (FIG. 1N).
(§3) Kinetic characterization of A01 antibody lineage (A01 (naïve parent), B01, C01, D01, E01 and F01) binding to monomeric and dimeric hActRIIB and hActRIIA was performed using standard BIACORE®-based analysis at 37° C. […] The equilibrium binding constant KD was determined by the ratio of binding rate constants kd/kₐ
This is another data set of the same source.

The target in assay [15] is T4, dimeric hActRIIA. The description is as above. The protocol:
as §2, §3
This is another data set of the same source.

Assay [16] addresses T3, monomeric hActRIIA. As to the kind of experiment: SPR (Biacore), 37 C. As to the method: (§4) Kinetic characterization of G02 antibody binding to monomeric and dimeric hActRIIB and hActRIIA was performed using standard BIACORE®-based analysis at 37° C. FIGS. 8A-8D show kinetic characterization of G02 antibody binding to monomeric and dimeric hActRIIB and hActRIIA (FIG. 8A-8D, respectively) as determined by BIACORE®-based analysis at 37° C.
The source holds these as a separate data set.

The target in assay [17] is T4, dimeric hActRIIA. Nature of the assay: SPR (Biacore), 37 C. As to the method: as §4
This is another data set of the same source.

For assay [18], the target named is T1, monomeric hActRIIB. As to the kind of experiment: SPR (BIACORE), 37 C, series of concentrations (not printed on the sheet). As to the method:
as §4

Assay [19] addresses T2, dimeric hActRIIB. Described as above. The protocol:
as §4

Changes are numbered by the printed parent chain.

T3 sequence (P27037 21-138 limits assumed): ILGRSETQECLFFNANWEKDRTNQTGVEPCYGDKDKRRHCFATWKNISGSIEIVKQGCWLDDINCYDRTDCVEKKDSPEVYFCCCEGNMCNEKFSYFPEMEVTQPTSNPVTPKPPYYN
T4 sequence (P27037 21-138): as the sequence (P27037 21-138 limits assumed) above

B1: G01 (antibody, human IgG1, kappa, V domains shown)
VH: QLQLQESGPGLVKPSETLSLTCTVSGGSISSSSYAWGWIRQPPGKGLEWIGSIYYSGSTYYNPSLKSRVTISVDTSKNQFSLKLSSVTAADTAVYYCARAGKYRWHGMDVWGQGTTVTVSS
VL: DIQMTQSPSSVSASVGDRVTITCRASQGISSWLAWYQQKPGKAPKLLIYAASNLQSGVPSRFSGSGSGTDFTLTISSLQPEDFATYYCQQAPDLPITFGGGTKVEIKR
notes: Human IgG; also called G01 Parent; G01 (naïve parent)
On to B1, for which, in assay [1], the Kd came out at 16.8 nM, the koff came out at 0.0152 s⁻¹ and the on-rate (kon) came out at 905000 M⁻¹ s⁻¹. In addition, in [2], the Kd came out at 1.14 nM, the off-rate constant (koff) stood at 0.00022 s⁻¹ and the on-rate (kon) was found to be 176000 M⁻¹ s⁻¹. In assay [3], the binding result is “no binding”. Besides, the binding result in assay [4] is on record as “no binding”.

B2: I01 (antibody, human IgG4 S228P, kappa, V domains shown)
VH: EVQLLESGGGLVQPGGSLRLSCAASGFTFGSYGMTWVRQAPGKGLEWVSVISGSGGGTYYADSVKGRFTISRDNSKNTLYLQMNSLRAEDTAVYYCAKGPRIVGMDVWGQGTTVTVSS
VL: B1 VL with N53S, A91V, P92F, D93S, L94Y, I96L
As to B2, the binding result in [5] is recorded as “binds”.

B3: H01 (antibody, human IgG1, kappa, V domains shown)
VH: QVQLQESGPGLVKPSETLSLTCAVSGYSISSGVYWMWIRQPPGKGLEWIGSIVHSGHTYYNPSLKSRVTISVDTSKNQFSLKLSSVTAADTAVYYCARAGKYRWHGMDVWGQGTTVTVSS
VL: B1 VL
notes: Human IgG
In the case of B3, the values for the dissociation constant Kd in assay [1] and in [2] were 11.8 nM and 0.353 nM, respectively. Moreover, the koff in assay [1] turned out to be 0.023 s⁻¹; in [2] it was 0.000127 s⁻¹. Besides, the on-rate (kon) in assay [1] turned out to be 1.95e+06 M⁻¹ s⁻¹; in assay [2], 358000 M⁻¹ s⁻¹. For the same molecule, the binding result in assay [6] and in assay [7] was “no binding” each time.

B4: F02 (antibody, human IgG1, kappa, V domains shown)
VH: EVQLLESGGGLVQPGGSLRLSCAASGFTFSRYAMSWVRQAPGKGLEWVSGISGSGGATYYADSVKGRFTISRDNSKNTLYLQMNSLRAEDTAVYYCAKDPLSLLLGYFDYWGQGALVTVSS
VL: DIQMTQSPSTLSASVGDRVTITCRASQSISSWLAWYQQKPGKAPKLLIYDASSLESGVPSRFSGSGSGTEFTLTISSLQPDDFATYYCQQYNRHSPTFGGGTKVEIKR
notes: Human IgG; also called F02 variant; F02 optimized antibody
For the molecule B4, the dissociation constant (Kd) in [8] is 2.63 nM; in assay [9] it was 0.738 nM. For the same molecule, the koff in [8] was 0.000313 s⁻¹; in [9], 3.46e-05 s⁻¹. Also, the kon in assay [8] worked out at 119000 M⁻¹ s⁻¹; in assay [9], 46900 M⁻¹ s⁻¹. Moreover, the binding result in assay [10] and in assay [11] was “no binding” in each case.

B5: A01 (antibody, human IgG1, kappa, V domains shown)
VH: QLQLQESGPGLVKPSETLSLTCTVSGGSISSSSYAWGWIRQPPGKGLEWIGSIYYSGSTYYNPSLKSRVTISVDTSKNQFSLKLSSVTAADTAVYYCARDSGIGYSYASSHGYYYYMDVWGKGTTVTVSS
VL: EIVLTQSPATLSVSPGERATLSCRASQSVGSNLAWYQQKPGQAPRLLIYGASTRATGIPARFSGSGSGTEFTLTISSLQSEDFAVYYCQQYFHFPLTFGGGTKVEIKR
notes: Human IgG from yeast libraries; also called A01 Parent; A01 (naïve parent)
Take B5: in assay [12], the Kd was determined as 1150 nM, the off-rate (koff) stood at 0.198 s⁻¹ and the kon stood at 172000 M⁻¹ s⁻¹. In [13], this molecule gave a dissociation constant Kd of 1.21 nM, a koff of 0.000128 s⁻¹ and an on-rate (kon) of 106000 M⁻¹ s⁻¹. Also, in assay [14], the binding result is recorded as “no binding”. The binding result in assay [15] is listed as “no binding”.

B6: G02 (antibody, human IgG1, kappa, V domains shown)
VH: QVQLQESGPGLVKPSQTLSLTCTVSGGSISSGSYYWSWIRQHPGKGLEWIGYIYYSGSTYYNPSLKSRVTISVDTSKNQFSLKLSSVTAADTAVYYCARGLGMYYHVPFDIWGQGTMVTVSS
VL: B5 VL with V13L, G30S, N32Y, G50D, T53N, E70D, Q79E, S80P, F94W, L96P
notes: Human IgG
In [16], B6 displayed an equilibrium dissociation constant (Kd) of 58 nM, an off-rate (koff) of 0.0661 s⁻¹ and a kon of 1.14e+06 M⁻¹ s⁻¹. In assay [17], binding was put at a Kd of 1.48 nM, the koff turned out to be 0.000275 s⁻¹ and the on-rate (kon) was determined as 186000 M⁻¹ s⁻¹. The binding result in [18] was “no binding”. Besides, the binding result in assay [19] is on record as “no binding”.

The Kd is the constant that tells how readily two partners part at equilibrium. One may read the koff as a measure of how fast the partners let go of each other. Read a high koff as a short-lived complex. One may read the kon as the second-order rate constant of association.
